Reference: PMC5955610 (Structure (London, England : 1993), 2010)

Biological target: T1, RMI1C (C-terminal domain of human RMI1, residues 475-625) (human, UniProt Q9H9A7 475-625, Se-Met substituted in the crystals)
T1 sequence (looked up): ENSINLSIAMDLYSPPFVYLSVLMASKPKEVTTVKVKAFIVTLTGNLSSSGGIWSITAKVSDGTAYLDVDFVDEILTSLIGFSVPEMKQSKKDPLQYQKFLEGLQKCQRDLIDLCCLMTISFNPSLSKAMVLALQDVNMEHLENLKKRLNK
Assay: crystal structure + SEC

stoichiometry N: 1 RMI1C:RMI2
B1: RMI2 (residues 6-147) (domain or fragment, human, UniProt Q96E14 6-147, looked up)
chain: DSFSGGPAGVRLPRSPPLKVLAEQLRRDAEGGPGAWRLSRAAAGRGPLDLAAVWMQGRVVMADRGEARLRDPSGDFSVRGLERVPRGRPCLVPGKYVMVMGVVQACSPEPCLQAVKMTDLSDNPIHESMWELEVEDLHRNIP
modifications: Se-Met substituted in the crystals
